Here are results for 19 sequences from a protein production outcome set (Wang et al. 2014).

A short description of the data set: label from the status in PepcDB records.
In the case of “MPFSKNLENLTAPFKRIKNRSLVLALGFLILTFCLLLFLILSDVSRLISGKDFFYVIQSHPKQTLIEDENYFYANKGLYKTNKEAFLRVYKIPESMPIERRENLSKVSKIFLALLFFISSMLFGIFWRLPKRLDTKMSLESAHKNELENAFQRYDALGVRFEDIAGVDEVKEELLEVIDYLKNPKKYQDLGIFLPKGVLLIGPPGVGKTMIAKALASEARVPFFYESGSAFSQIYVGAGAKKVHELFMHAKRHAPSIIFIDEIDALGKARGGHRSDEREATLNQLLTEMDGFLQNDEVVVIGATNQMEVMDEALLRSKRFDRRIFISLPDLLERQSILEKLLENKKHALNYLKIAKICVGFSGAMLATLINESALNALKHQRTEIAESDILEVKDKIAYGKKKPQTLDENQKELVALYQSAKALSAYWLEIEFDKAPILGEFIAFNENKIHSESEIKNYIKVYLSGTIILELLYKERYSLSKQDLQKAKFLNEFMASELLLAPTKESLSVLYEEQLEFLKPQIAACKRLSVLLLEQEYLEHSNLYDLLNG”, the protein production entry is on record as “failed”.
The value for “MELNQPPLPTEIDGDAYHKPSFNDLGLKESVLKSVYEAGFTSPSPIQEKAIPAVLQGRDVIAQAQTGTGKTAAFALPIINNLKNNHTIEALVITPTRELAMQISDEIFKLGKHTRTKTVCVYGGQSVKKQCEFIKKNPQVMIATPGRLLDHLKNERIHKFVPKVVVLDESDEMLDMGFLDDIEEIFDYLPSEAQILLFSATMPEPIKRLADKILENPIKIHIAPSNITNTDITQRFYVINEHERAEAIMRLLDTQAPKKSIVFTRTKKEADELHQFLASKNYKSTALHGDMDQRDRRSSIMAFKKNDADVLVATDVASRGLDISGVSHVFNYHLPLNTESYIHRIGRTGRAGKKGMAITLVTPLEYKELLRMQKEIDSEIELFEIPTINENQIIKTLHDAKVSEGIISLYEQLTEIFEPSQLVLKLLSLQFETSKIGLNQQEIDAIQNPKEKTPKPSNKKTPQHERARSFKKGQHRDRHPKTNHYSKKPKRR” was “failed”.
Take “MHNKKWDLRIICAHAFTILIWGSAFPAIRMGLASYTPEHLTLLRLLIASFILLLFSFIYKLRIPDLKDIPAIFIFGALGFTFYHIALNYGEKTVNAGSASLIVSVTPIVTAILASIFLNEKMKLNGWIGGGISFIGIALISFSQGDAIQLNSGGFFILLAAISESLYFVFQTSYLKKYGFLPFTIYTILSSTVCMLIFFPGMYTEILAAPLEVNMSVIYLGLFPTVLPYIALAYIISHSGAAEATSSLYLTPVTACFVAWIWLGEVPTFVSIIGGGITILGILIVHIPVLRKEKHRNLANNQSV”: the protein production entry is “failed”.
The value for “MVRNMLIESVLFLAAGLFMLSYGSDWFVLGASRVAKQFNISSFVIGATIVAFGTSLPEIVTSAYAASTGSVELAVGNALGSCIANIGLVLGLSLIISTVFIKNRSVLKNGYLYIIYTIIFTAIGYNGFSFFDGIFLLFLLLVYVVYTIKSGEMDDEEHEKSITFKKAIIYLLIGLLFVILGSSFFVDGAKGLASAFGVSEKIIGFTIVAFGTSLPELSVSFAAARQKLGGIVIGNVIGSNIANMFGALAIASIIHEIPAVKFELSVNILMVLLLIAMMSKEKIKAVLNLNSTKEYLSKITKADGLILILIYLLFVLGLTGIF” was “failed”; that for “MGAMAEIQFIRGINEEVVPDVRLTRARDGSSGQAMFYFDNPKIVQEGNLEVTGMYMVDEEGEIVTRDVNAKFINGQPVAIEATYTMRSPQEWDRFIRFMDRYAASHGLGFQKSENS” was “failed”; that for “GSLKCILLNQAEELPIEFLPKDGVYGKGKLFDSRNMEIENFTESDILQDARRAAEAHRRARYRVQSIVRPGITLLEIVRSIEDSTRTLLKGERNNGIGFPAGMSMNSCAAHYTVNPGEQDIVLKEDDVLKIDFGTHSDGRIMDSAFTVAFKENLEPLLVAAREGTETGIKSLGVDVRVCDIGRDINEVISSYEVEIGGRMWPIRPISDLHGHSISQFRIHGGISIPAVNNRDTTRIKGDSFYAVETFATTGKGSIDDRPPCSHFVLNTYKSRKLFNKDLIKVYEFVKDSLGTLPFSPRHLDYYGLVKGGSLKSVNLLTMMGLLTPYPPLNDIDGCKVAQFEHTVYLSEHGKEVLTRGDDY” was “not failed”.
For “MAISDANRGGAPGAAPGPDPAHILHELAGLMAISPGRDFLDELVNRAVQRLGVDYAWVVLHGAKGEHARTVLSANCRMRWNGAESYLATGQSALAGVLSHATQYVCARDLERHVPGDLALRRLGAQACVAHALRDESGLQRGHVAFVFSEPLADPAIYVSALSACAAFTERAVLALDAERKARQEALQLASRYQALFEKAPVLINAFDARGKCILWNLECERKFGWSMEEVNNHPEPLALFYPDPQTRARVVASVSQAPGRAFEEWHPVTRAGKVLSTLWSNIVLESGTIVNIGLDITERKRAELALTRLATIDSLTDCWNRAEILKILRQEITRLRQHPDQPLAVVMLDLDHFKQLNDLHGHLVGDAALRYFSDQLRSNLRGTDFVGRIGGEEFLALLPGCDGDAALAMADRLRAALRNDPFTTEGQAAPLSVSVGIAFATPEDTAVSDVMRRADTALYEAKRRGRDRAVVYFG”, the protein production entry is “failed”.
Turning to “MSPIVSVPDITAPVENVPAILPKVVPGELIVNKPTGGDSDELFQYLVDILASPVYDVAIESPLELAEKLSDRLGVNFYIKREDKQRVFSFKLRGAYNMMSNLSREELDKGVITASAGNHAQGVALAGQRLNCVAKIVMPTTTPQIKIDAVRALGGDVVLYGKTFDEAQTHALELSEKDGLKYIPPFDDPGVIKGQGTIGTEINRQLKDIHAVFIPVGGGGLIAGVATFFKQIAPNTKIIGVEPYGAASMTLSLHEGHRVKLSNVDTFADGVAVALVGEYTFAKCQELIDGMVLVANDGISAAIKDVYDEGRNILETSGAVAIAGAAAYCEFYKIKNENIVAIASGANMDFSKLHKVTELAGLGSGKEALLATFMVEQQGSFKTFVGLVGSLNFTELTYRFTSERKNALILYRVNVDKESDLEKMIEDMKSSNMTTLNLSHNELVVDHLKHLVGGSANISDEIFGEFIVPEKAETLKTFLDAFSPRNITLCRYRNQGDINASLLMGFQVPQAEMDEFKNQADKLGYPYELDNYNEAFNLVVSE”, the protein production result is listed as “not failed”.
The value for “MPEVVFYPQNKSINVEEGTTILQAARSAGVIIESPCNGTGTCGKCKVRLDEKSLPNVLAKSRHYLSKEEEEQGYVLACETQITGDIKVELGENKQNGTLKILSRGHSFNIDLKPFIRKEYFVHEDVTKVFAGKEQLGIEAGDTTKENYGAVVDIGTTTLVASIVNLNNGDEIGTSSALNPQAVHAQDVLSRIKFSSDADGLKVMHSELTDKINSMIGKIALRAGISKEHIYEIVFSGNTCMLHLASNTCPESLGKYPYTPKISGAAYLDAAKYNIDISPFGIIYLPPIISAYVGADIVSGILASQLHEKDGVILFVDIGTNGEMVLASCGNLSATSTAAGPAFEGMNITCGMRAGEAAIEFFEIEEQGSINIKVIGETEAAGICGSGLLDMVGEFAAHGVIKKNGQFIDPESENVLHPKLAERLVRQDGKWIFKVTDKVFLSQKDIRQVQLAKGAVRAGIEFLLENKGVRASDVDKVLIAGSFGYHLREKSLINIGLLPKEFEGKVEFVGNTSLSGAKAFLLNQTYREKMKETVKSVEVLELANYKDFDRVFVRCLSFLEHHHHHH” was “failed”; that for “DPGERLYDLNMPAYVKFNYMAEREDELSLIKGTKVIVMEKCSDGWWRGSYNGQVGWFPSNYVTEEGDSPLGDHVG” was “not failed”.
With “MLIIAILCLGLLVAQGVASLILLSRLVKGARRRSPLAPVFLPEEGVRNVSVVVPTLNEAARVTPCLLGLAQQGPPLREILVVDSRSTDGTQAVVQARQKDNPRLQLLTDDPLPDNWVGRPWALNYGFRHSDPASEWILGIDADTQPQPGLVASVVQAAEEENYDILSLSPQFILQSPGEWWLQPALLMTLLYRFESAGVREQAPETVMANGQCFLCRRLVLEALGGYELAARSFCDDVTLARVAAQRGYRVGFLDGANLIRVRMYEGIGETWREWGRSLDLKDATVPARLWAEVIFLLLVQGLPILFFSLLLMLWGEDFDFLTLRLAIALNGFLLLVRWGMLLAIYPSYYRPSEKGAWSYWLSPLADPLAVTRIIISASQTPKQWRGRIYPGAS” the entry was “failed”; with “MSDLQKLQRFSTCDISDGLLNVYNIPTGGYFPNLTAISPPQNSSIVGTAYTVLFAPIDDPRPAVNYIDSVPPNSILVLALEPHLQSQFHPFIKITQAMYGGLMSTRAQYLKSNGTVVFGRIRDVDEHRTLNHPVFAYGVGSCAPKAVVKAVGTNVQLKILTSDGVTQTICPGDYIAGDNNGIVRIPVQETDISKLVTYIEKSIEVDLLVSEDIKNGIPAKQAQNDRRSVLKKYI”, “not failed”; with “MITYHSNALQSERQMYVWTPPGYTGMGEPLPVLYFYHGFGDTGRSAIDQGRIPQIMDNLLAEGKIKPMLVVIPDTETDAKGIIPEDFVPQERRKVFYPLNAKAADRELMNDIIPLISKRFSVRKDADGRALAGLSQGGYQALVSGMNHLESFGWLATFSGVTTTTVPDEGVAARLNDPAAINQQLRNFTVVVGDKDVVTGKDIAGLKTELEQKKIKFDYQEYPGLNHEMDVWRPAYAAFVQKFKIRHLEHHHHHH”, “failed”.
Turning to “MINYPNLPNSALEITEQPEVKEITNELLKQLQNALNSNSLFSEQVELSLKGIVRILEVLLSLDFFKNANEIDSSLRNSIEWLNNAGESLKTKMKEYEGFFSDFNTSMRTNEQEVSATLNANTENIKSEIKKLENQLIETTTRLLTSYQIFLNNARDSANNQITANKTESLEALNQAKTSANNEITANQTQALTNINEAKENANNQITENKTQAITNINEARESATTQITTNKQEVLNSITQEKNQATSEITEAKKSAFNELLETLKPKFSGLFAGAYYIRNVIIFKADGRRKSRI”, the protein production entry is given as “failed”.
With “MQAAVTVTPARLPELLLGLATVRPVFLWGAPGIGKSSLVRNFADSLGLECVSLLGTQLAPEDLIGVPQIRDGRSVFCPPESIARDEPYCLFLDELNAATPDVQKAFYSLILDRRIGNYELPKGSLVIGAGNRATDNALARPIASALVNRLTHVHLDASAKDWLVWAGENGIHPWITDHLTDRPDHLWSKPPKTEEPFSTPRSWHMLSDALHSFGQDLDEETLKVLAHGTLTPAHATAFCGYVKIVRSRFGIEAILKGEARWPSRIEDRDLLYYLAESFRGRLVKELPASKEHMSANGRQTAYRAKSLLVQLAEISVEVAQSVIASDADGNPLLPAWFLVEAARDMPRLVEARRLEHHHHHH” the entry was “failed”; with “MVAGFTVHSGPHHVPHRDMTHHSRPPGHAPRVTILMPVYNGEKYLAAAMESILDQTFRDFILLIIDDGSSDSSLAIARSFGDPRVQVERNPKNLGLVKTLNRGLDLVQTEFVARMDCDDIALPDRLEKQIAFLDENPDIGMCGTAYELFHESLRQTIRPPCRHEEIVYGLLDDNVFLHSSVIVRMEVLNRHGLRYREDYRLAEDYELWARLARYTHIGNLPQVLVRYRSHPENVSNTNKGEQIATRDRVRLEHLESFGLAPAADQKTLHIDLFSLAFQGSPDQLADARRWLEALARAVSTRCGLPLGRLHRDFALLWYSACGRSAHHGLTVLFSYLKSAMAWKGPKSYILKLLFRCLMRDPIPAVTKLEHHHHHH”, “not failed”; with “MEPWKQCAQWLIHCKVLPTNHRVTWDSAQVFDLAQTLRDGVLLCQLLNNLRAHSINLKEINLRPQMSQFLCLKNIRTFLTACCETFGMRKSELFEAFDLFDVRDFGKVIETLSRLSRTPIALATGIRPFPTEESINDEDIYKGLPDLIDETLVEDEEDL”, “failed”.
The value for “MEALAMAGVDYQEWGLSIEEWELQESVVPLHLLADDFKEEEQEEDHQDNDDDDRVLDGLAVKQSVTRDIRASVGKFIEQSMSHMIVHLKQLKFLTLLLENFLFTHVLDFLL” was “failed”; that for “MGHHHHHHSHLYPGSVYGRLIDLCQPTQKKYQIAVTKVLGKNMDAIIVDSEKTGRDCIQYIKEQRGEPETFLPLDYLEVKPTDEKLRELKGAKLVIDVIRYEPPHIKKALQYACGNALVCDNVEDARRIAFGGHQRHKTVALDGTLFQKSGVISG” was “not failed”.
